Key:
SEC-MALS = molecular target: the molecule itself; experiment: SEC-MALS
mass photometry = molecular target: the molecule itself; experiment: mass photometry

B1: NIT1 WT (purified recombinant AtNIT1) (enzyme)
chain: MSSTKDMSTVQNATPFNGVAPSTTVRVTIVQSSTVYNDTPATIDKAEKYIVEAASKGAELVLFPEGFIGGYPRGFRFGLAVGVHNEEGRDEFRKYHASAIHVPGPEVARLADVARKNHVYLVMGAIEKEGYTLYCTVLFFSPQGQFLGKHRKLMPTSLERCIWGQGDGSTIPVYDTPIGKLGAAICWENRMPLYRTALYAKGIELYCAPTADGSKEWQSSMLHIAIEGGCFVLSACQFCQRKHFPDHPDYLFTDWYDDKEHDSIVSQGGSVIISPLGQVLAGPNFESEGLVTADIDLGDIARAKLYFDSVGHYSRPDVLHLTVNEHPRKSVTFVTKVEKAEDDSNK
modifications: RED-NHS 2nd Generation dye (in the MST only)
- stoichiometry N (SEC-MALS): 20
- stoichiometry N (mass photometry): ≤ 10

Reference: doi:10.1101/2024.05.06.590709 (bioRxiv, 2024)
